# Assay results as given in PMC6289497 (ACS Omega, 2018).
# Experiments:
# [1] = molecular target: human metapneumovirus (HMPV) strain CAN97-83 M2-1 protein (human metapneumovirus strain CAN97-83); experiment: Gdm.HCl-induced equilibrium denaturation
# SEC = molecular target: the molecule itself; experiment: SEC
Molecule,stoichiometry N [1],binding result (SEC)
human metapneumovirus (HMPV) strain CAN97-83 M2-1 protein (natural protein),4,
H25A RSV-M2-1 (natural protein) MSRRNPCKFEIRGHCLNGKRCHFSANYFEWPPHALLVRQNFMLNRILKSMDKSIDTLSEISGAAELDRTEEYALGVVGVLESYIGSINNITKQSACVAMSKLLTELNSDDIKKLRDNEELNSPKIRVYNTVISYIESNRKNNKQTIHLLKRLPADVLKKTIKNTLDIHKSITINNPKESTVSDTNDHAKNNDTT,,binds
H25C RSV-M2-1 (natural protein) MSRRNPCKFEIRGHCLNGKRCHFSCNYFEWPPHALLVRQNFMLNRILKSMDKSIDTLSEISGAAELDRTEEYALGVVGVLESYIGSINNITKQSACVAMSKLLTELNSDDIKKLRDNEELNSPKIRVYNTVISYIESNRKNNKQTIHLLKRLPADVLKKTIKNTLDIHKSITINNPKESTVSDTNDHAKNNDTT,,binds
